Reference: the supplement of paper PMC7125110
± gives the standard error. This sample holds only a part of the variants without activity.

B1: glmS ribozyme (parent)
chain: AUAAAAGCGCCAGAACUACAGAAAUGUAGUUGACGAGGAGGAGGUUUAUCGAAUUUUCGGCGGAUGCCUCCAAA

Key:
Conditions in all cases: with glucosamine-6-phosphate
[1] = variants of: B1; test: self-cleavage kobs at 640 uM GlcN6P; higher = faster cleavage; RNA array
Outline: (§1)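 Ribozyme variants carrying barcodes were transcribed in situ on sequenced MiSeq chips by E. coli RNA polymerase and tracked at 37 °C with a hybridised Cy3 probe. They were exposed to 40 μM to 10 mM glucosamine-6-phosphate in HEPES/KCl/Mg(OAc)2 buffer. kobs came from exponential decay fits of normalised per-tile medians, and kcat and KM from weighted Michaelis–Menten fits.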

[2] = variants of: B1; test: self-cleavage kobs at 2500 uM GlcN6P; higher = faster cleavage; RNA array
Outline: as §1

[3] = variants of: B1; test: self-cleavage kobs at 10000 uM GlcN6P; higher = faster cleavage; RNA array
Outline: as §1

Variant	self-cleavage kobs at 640 uM GlcN6P [1] [s⁻¹]	self-cleavage kobs at 2500 uM GlcN6P [2] [s⁻¹]	self-cleavage kobs at 10000 uM GlcN6P [3] [s⁻¹]
A12G U30A A52C U54C	< 1e-05	< 1e-05	–
C8G A15U U56C	< 1e-05	< 1e-05	< 1e-05
A33C U47G A48C	< 1e-05	< 1e-05	< 1e-05
G35A G44A	< 1e-05	< 1e-05	< 1e-05
A6C A12U G51U U54G	< 1e-05	< 1e-05	–
C10A C67U C68U	0.000489 ± 0.00014	–	–
U30G U55A	0.0024 ± 0.00049	0.00295 ± 0.00084	–
G13C A14U A42U A64G	< 1e-05	–	–
G13C G37U A39U	< 1e-05	< 1e-05	–
A14C C34U U54C	< 1e-05	< 1e-05	< 1e-05
A6G C11G C34U U45G	< 1e-05	–	–
A12U G32C C50G C70G	0.000371 ± 0.00015	0.000257 ± 8.3e-05	–
G9U G59C G63C C70U	< 1e-05	–	–
C11A A33G A48C C67U	< 1e-05	< 1e-05	–
A6G G41A G43C C50G C61U	< 1e-05	< 1e-05	–
A42C U56C G60U	< 1e-05	–	–
G13C G29C	2.89e-05 ± 9.5e-06	3.23e-05 ± 1.2e-05	9.98e-05 ± 2.1e-05
G51U C67U U69C	5.75e-05 ± 2.5e-05	–	–
A14G G21U U31G G38U U57C	< 1e-05	< 1e-05	–
C11A G44A C68A	< 1e-05	< 1e-05	–
A6G G51C A53U C67U	< 1e-05	–	–
C10U U31C U49C	< 1e-05	–	–
C8U C58A U65C	< 1e-05	< 1e-05	–
C34U A52G U54G	< 1e-05	< 1e-05	–
C8U A33C G40C G62A C70U	< 1e-05	–	–
C11G A42U G59U	< 1e-05	< 1e-05	–
G13A A15C G60U	< 1e-05	–	–
A15C G29U U55A	0.000758 ± 0.0002	–	–
C8G U54C G60A	< 1e-05	< 1e-05	–
A14C A33C G44C G59U	< 1e-05	< 1e-05	–
